Data on 116 sequences can be found in the supplement of paper PMC10724198.

± gives the standard deviation of the averaged measurements.
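Further: PSI is a weighted mean of sequencing reads over stability bins, variants kept only with over 10 reads, mCherry proximal and sfGFP distal, peptide attached via GGGS linker.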

This data set concerns Saccharomyces cerevisiae. As to the kind of experiment: protein stability index of tFT-peptide fusion (C-terminal peptide) (PSI (0-1 scale)); higher = more stable (slower turnover). The following applies: genetic background: wild type; temperature: 30 C.
KHVRIEVITERN yielded a protein stability index of 0.635 ± 0.056.

KIGNQLQELRRI had a protein stability index of 0.696 ± 0.017.

Turning to KIHINTMFQIKK, the protein stability index is 0.536 ± 0.051.

On to KIIGVRLKFDRS, for which the protein stability index amounted to 0.761 ± 0.14.

Regarding KIKEIIKIKKKR, the protein stability index worked out at 0.678 ± 0.009.

For the sequence KIKKKKYTKYTK, the protein stability index came to 0.553 ± 0.052.

Regarding KIKNKKNKCKKK, the protein stability index was determined as 0.751 ± 0.14.

The sequence KIRDECFQPVNR returned a protein stability index of 0.674 ± 0.059.

Take KIYLKDKKKSKK: the protein stability index worked out at 0.668 ± 0.057.

Consider KKAKRKHLLGRA, for which the protein stability index was determined as 0.66 ± 0.017.

Sequence KKDTTRGENYKP gave a protein stability index of 0.767 ± 0.016.

The sequence KKEGKTKSIRKK registered a protein stability index of 0.726 ± 0.013.

Take KKEKRQQEKIIK: the protein stability index is 0.671 ± 0.04.

For the sequence KKEQKKKNKNDR, the protein stability index was 0.669 ± 0.025.

KKGREKKQQKER registered a protein stability index of 0.717 ± 0.015.

In turn, KKHKKEDNKEKK returned a protein stability index of 0.708 ± 0.051.

KKIKKKKQTKRK came in with a protein stability index of 0.662 ± 0.039.

As for KKIKKKQTTLKR, the protein stability index is 0.665 ± 0.081.

KKILNKEKSKMA registered a protein stability index of 0.7181 ± 0.0049.

Regarding KKIRSMRREGQR, the protein stability index turned out to be 0.714 ± 0.08.

With KKKEHQKIKNER, the protein stability index worked out at 0.675 ± 0.032.

For KKKHIRTEKDNK, the protein stability index was found to be 0.704 ± 0.014.

Sequence KKKIINEKKKKD yielded a protein stability index of 0.70019 ± 0.00067.

Turning to KKKKAKKIKKQK, the protein stability index turned out to be 0.675 ± 0.059.

With KKKKEEKKKSKK, the protein stability index was found to be 0.644 ± 0.041.

KKKKIKIKKKKI: the protein stability index worked out at 0.763 ± 0.043.

Sequence KKKKIKKKEKNK returned a protein stability index of 0.716 ± 0.079.

On to KKKKIKKKKINI, for which the protein stability index is 0.597 ± 0.0067.

KKKKKKKETKKR showed a protein stability index of 0.661 ± 0.047.

In the case of KKKKKKKKKKKR, the protein stability index turned out to be 0.633 ± 0.009.

As for KKKKKKKKKKPK, the protein stability index came out at 0.611 ± 0.022.

As to KKKKKKKKQEQN, the protein stability index amounted to 0.63076 ± 3e-05.

On to KKKKKKKKRNRK, for which the protein stability index was 0.666 ± 0.018.

In turn, KKKKKKKSTKRN came in with a protein stability index of 0.713 ± 0.037.

KKKKKKNTHNTK registered a protein stability index of 0.646 ± 0.07.

As to KKKKKKRYRKKI, the protein stability index came out at 0.605 ± 0.024.

The sequence KKKKKNNKRQKQ had a protein stability index of 0.593 ± 0.089.

Consider KKKKLKQKKNKQ, for which the protein stability index was found to be 0.655 ± 0.008.

With KKKKNNKKKQRT, the protein stability index amounted to 0.731 ± 0.027.

Take KKKKQIKKTKKK: the protein stability index came to 0.701 ± 0.047.

Consider KKKKQKKRETTK, for which the protein stability index is 0.636 ± 0.012.

For KKKKQKNNRKKP, the protein stability index was found to be 0.574 ± 0.059.

For KKKKRKGKRQPR, the protein stability index turned out to be 0.671 ± 0.041.

Turning to KKKKRKKKKINI, the protein stability index is 0.611 ± 0.038.

Consider KKKKRQNIQNKK, for which the protein stability index was 0.692 ± 0.054.

As for KKKLEIKIEKRE, the protein stability index was determined as 0.644 ± 0.042.

Consider KKKNKKEDKRKK, for which the protein stability index was 0.6942 ± 0.0031.

For KKKNKKKQKEEK, the protein stability index was determined as 0.693 ± 0.012.

KKKNKKKRKGRK displayed a protein stability index of 0.684 ± 0.037.

KKKNKKNKKKAE came in with a protein stability index of 0.6915 ± 0.0047.

On to KKKQNVKSNEVG, for which the protein stability index stood at 0.651 ± 0.096.

In turn, KKKRKEEIKKKK yielded a protein stability index of 0.742 ± 0.012.

KKKRKKKQKIRK: the protein stability index was determined as 0.731 ± 0.08.

In turn, KKKTIKKTIKNQ returned a protein stability index of 0.702 ± 0.031.

As to KKKTKEKTRKKK, the protein stability index turned out to be 0.702 ± 0.016.

For KKKTKRKQKIET, the protein stability index came out at 0.727 ± 0.022.

In the case of KKNKKKKIKMNK, the protein stability index was 0.713 ± 0.038.

KKNKKKRRAQKE displayed a protein stability index of 0.669 ± 0.044.

On to KKNKKPKKQNNK, for which the protein stability index was found to be 0.681 ± 0.063.

As to KKNKNLTYKRMI, the protein stability index came to 0.716 ± 0.029.

In turn, KKNKRKLKKKKK registered a protein stability index of 0.72 ± 0.087.

Sequence KKNLHEQIGEAI came in with a protein stability index of 0.687 ± 0.051.

KKNTKKKQVNQE returned a protein stability index of 0.747 ± 0.05.

In turn, KKPVNINNKLSA returned a protein stability index of 0.647 ± 0.017.

As for KKQKKKPQNKKK, the protein stability index was 0.954 ± 0.066.

In turn, KKQKKWQSNTIR gave a protein stability index of 0.696 ± 0.034.

In turn, KKQKRRKGEREK came in with a protein stability index of 0.637 ± 0.0023.

Consider KKQQKKKNKNDR, for which the protein stability index was determined as 0.651 ± 0.017.

As for KKRKVKKKKPNG, the protein stability index worked out at 0.581 ± 0.033.

As to KKRYYNKKINEK, the protein stability index is 0.699 ± 0.046.

KKSDTKKKGQNK displayed a protein stability index of 0.673 ± 0.048.

In turn, KKSGTRDKNIQH registered a protein stability index of 0.676 ± 0.046.

Take KKSKKHEKKKNK: the protein stability index stood at 0.711 ± 0.065.

Regarding KKTGITTNIKRW, the protein stability index is 0.741 ± 0.23.

KKTITNNCPSYD yielded a protein stability index of 0.6638 ± 0.0066.

On to KKTKKKKNKKQE, for which the protein stability index was 0.716 ± 0.081.

Sequence KKTTKRKKEKQK came in with a protein stability index of 0.633 ± 0.07.

With KKVDLEDQRKER, the protein stability index was 0.745 ± 0.008.

Sequence KLILGGSRGIMD returned a protein stability index of 0.646 ± 0.014.

KLNDTLKDRQNK: the protein stability index amounted to 0.67 ± 0.037.

With KLNVRATPPPTI, the protein stability index was 0.7 ± 0.055.

KLQKKTRQKKKK returned a protein stability index of 0.653 ± 0.035.

With KLRETQIHQGKT, the protein stability index is 0.698 ± 0.021.

KLVGSLLSPDSE yielded a protein stability index of 0.724 ± 0.015.

For KMGKIQKVKGIK, the protein stability index is 0.731 ± 0.012.

Turning to KMTSLSRVDIEE, the protein stability index was determined as 0.668 ± 0.087.

Take KMYILKGKIRKI: the protein stability index was 0.612 ± 0.057.

Regarding KNCARIKERKDV, the protein stability index came to 0.627 ± 0.03.

The sequence KNEGYHNVTMNL yielded a protein stability index of 0.707 ± 0.017.

The sequence KNKGKHKGGKYR registered a protein stability index of 0.721 ± 0.059.

KNKIKITKRKRK showed a protein stability index of 0.734 ± 0.0099.

Take KNKKKNQIENRT: the protein stability index turned out to be 0.692 ± 0.0014.

On to KNQKTTKKKKKI, for which the protein stability index was found to be 0.543 ± 0.019.

For the sequence KNSKKKKLKIER, the protein stability index is 0.804 ± 0.27.

Regarding KNSLIKTKESRK, the protein stability index came out at 0.6947 ± 0.0021.

For KNVILKKNKNWL, the protein stability index was 0.6746 ± 0.0063.

Sequence KPLPSHYPGRTP registered a protein stability index of 0.658 ± 0.016.

For KPRSRMHRIVRI, the protein stability index worked out at 0.722 ± 0.027.

For the sequence KPRTLRPDQNAT, the protein stability index was found to be 0.689 ± 0.0087.

KQDIETDKKEEG yielded a protein stability index of 0.666 ± 0.13.

KQFGIHSRVFLM registered a protein stability index of 0.547 ± 0.021.

Regarding KQKNSNKKTQRI, the protein stability index came out at 0.712 ± 0.021.

As for KQKTSRGTGQSL, the protein stability index is 0.683 ± 0.1.

In turn, KQNRKEKVQRNR returned a protein stability index of 0.709 ± 0.054.

Sequence KQQTPVQNKDLR came in with a protein stability index of 0.71399 ± 0.0006.

KQSNRYPCIHRS registered a protein stability index of 0.705 ± 0.048.

In turn, KRCTFCGGGWVM gave a protein stability index of 0.7276 ± 0.00082.

In turn, KREGEGLDWGEV showed a protein stability index of 0.7089 ± 0.0014.

For KREQGPRPRACR, the protein stability index is 0.617 ± 0.036.

For the sequence KRGKRTEKDKET, the protein stability index was 0.652 ± 0.071.

Regarding KRKEDSILVISC, the protein stability index amounted to 0.662 ± 0.029.

KRKERKGEKKRR came in with a protein stability index of 0.685 ± 0.033.

Sequence KRKKKENNKIKI had a protein stability index of 0.756 ± 0.1.

Regarding KRKKKRKQKGKQ, the protein stability index worked out at 0.722 ± 0.036.

Sequence KRKKNKKRKQNE displayed a protein stability index of 0.656 ± 0.026.

On to KRKKTRNKNGKG, for which the protein stability index came out at 0.627 ± 0.073.
